Experimental data taken from PMC2935283.

Legend:
[1] = target: Escherichia coli enolase (E. coli) (UniProt P0A6P9); assay: crystal structure; enolase and microdomain mixed in a 1:1.5 molar ratio on ice for 20 min; sitting drop, 0.1 M HEPES pH 7.0, 1.6 M ammonium sulfate, 293 K; 1.9 A
[2] = target: Escherichia coli enolase (E. coli) (UniProt P0A6P9); assay: native MS; enolase mixed with the microdomain in a 1:1.5 molar ratio, room temperature, 20 min; nanoflow ESI, tandem nondissociating QTOF-MS/MS

Escherichia coli enolase (E. coli), sequence (P0A6P9 whole entry): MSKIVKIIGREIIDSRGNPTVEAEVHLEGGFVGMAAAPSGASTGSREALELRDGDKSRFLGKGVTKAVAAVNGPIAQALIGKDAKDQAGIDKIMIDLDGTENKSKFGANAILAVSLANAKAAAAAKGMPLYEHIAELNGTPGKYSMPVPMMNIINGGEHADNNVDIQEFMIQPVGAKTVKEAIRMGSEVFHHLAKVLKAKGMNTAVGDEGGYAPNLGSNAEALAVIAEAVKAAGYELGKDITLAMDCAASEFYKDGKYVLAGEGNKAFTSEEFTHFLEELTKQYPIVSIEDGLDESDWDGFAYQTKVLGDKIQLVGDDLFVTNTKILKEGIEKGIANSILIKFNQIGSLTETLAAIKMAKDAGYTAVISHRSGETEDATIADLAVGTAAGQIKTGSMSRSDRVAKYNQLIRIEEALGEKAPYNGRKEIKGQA

stoichiometry N (RNase E microdomain per enolase dimer) [1]: 1
Substance: RNase E recognition microdomain (residues 823-850) (peptide)
stoichiometry N (RNase E microdomain per enolase dimer) [2]: 1
